Results as given in US20240166737A1.

How the values were obtained:
recombinant CD3 = recombinant CD3 (UniProt P07766); test: SPR
[1] = biological target: CD3 epsilon on human T-cells (human) (UniProt P07766); test: T cell binding
Sequence of CD3 epsilon on human T-cells (human) (P07766 23-207 limits assumed): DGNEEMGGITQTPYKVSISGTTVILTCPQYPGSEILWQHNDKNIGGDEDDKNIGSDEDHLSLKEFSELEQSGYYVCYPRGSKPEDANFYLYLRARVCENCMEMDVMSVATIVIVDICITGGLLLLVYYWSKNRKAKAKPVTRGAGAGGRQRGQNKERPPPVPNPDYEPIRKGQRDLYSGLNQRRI

Sequence of recombinant CD3 (P07766 23-126): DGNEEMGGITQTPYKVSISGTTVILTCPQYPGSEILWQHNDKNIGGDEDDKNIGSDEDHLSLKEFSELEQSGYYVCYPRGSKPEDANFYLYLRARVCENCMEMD

Kd (recombinant CD3): 50 to 100 nM | EC50 [1]: > 300 nM
B1: CD3B450-LH-ScFv (scFv, V domains shown, not shown: small tags and cut ends)
VH: QVQLQQSGPGLVKPSQTLSLTCAISGDSVFNNNAAWSWIRQSPSRGLEWLGRTYYRSKWLYDYAVSVKSRITINPDTSKNQFSLQLNSVTPEDTAVYYCARGYSSSFDYWGQGTLVTVSS
VL: QSALTQPASVSGSPGQSITISCTGTSSNIGTYKFVSWYQQHPGKAPKVMIYEVSKRPSGVSNRFSGSKSGNTASLTISGLQAEDEADYYCVSYAGSGTLLFGGGTKLTVL
